Two proteins from paper PMC6281700, “Biochemical Characterization of Kluyveromyces lactis Adenine Deaminase and Guanine Deaminase and Their Potential Application in Lowering Purine Content in Beer” (Frontiers in Bioengineering and Biotechnology, 2018) can be followed below.

Substrate in series [1]: Nc1nc2nc[nH]c2c(=O)[nH]1
The series can be described thus: purified protein. Particulars: 100 mM phosphate, pH 7.0, 25°C. Format: biochemical, Kluyveromyces lactis.

Substrate in series [2]: Nc1ncnc2nc[nH]c12
In words: purified protein. Format: biochemical, Kluyveromyces lactis. Particulars: 100 mM potassium phosphate, pH 6.0, 30°C.

B1: KlacGDA (Kluyveromyces lactis NRRL Y-1140) (protein)
chain: MAPVTINMVKSEESFIDEPFHPEGVKIIVHYGNLIDTPELGQLRIRLKCAVGICSTSGVILFIEEGCDDPVIAALNYDRYLKDIDIHVIFNSVSDPAGKDSFYFPGFVDTHIHASQYPNCGIFGNSTLLDWLDTYTFPLESSLNDENIAALTYDAVISQTLKHGTTCASYFTTIDSNSSKIMADLCKSKGQRAFIGKVCMNQHSPSYYQETIEECKDASLDLIEYILKDLNSPLIKPIITPRFAITCSSALMDSLSEVAEEFDLPIQTHLNENDSEIAFVKELFKDCHSYTDVYHKHGLLNGKTVLAHCIHLEDSEIELLKKSSAGISHCPISNSSLTSGECRVKELLNYGLKVSLGSDVSGGFTVSILENARQALLVSRHRAMSVEDPERKEECKLSVAEVLYLATMGGAKVLNLSDKIGSFDVGKEFDAQLIDLSTKGSNVSIFPWQKVTNDKIQPNGKDRIKLENIVAKWLFNGDDRNVKSVWVRGKLCHQNL
notes: full length, N-terminal 6xHis (pET28c NdeI/XhoI), E. coli BL21(DE3); 106 kDa dimer; gene at chromosome D 1,643,703-1,645,193 (1491 bp, about 496 residues)
In the case of B1, in the series “purified protein [1]”, the Michaelis constant (Km) is 83 ± 2.7 µM, the kcat turned out to be 7.3 ± 1.2 s⁻¹ and the kcat/Km was 87000 M⁻¹ s⁻¹.

B2: KlacADA (Kluyveromyces lactis NRRL Y-1140) (protein)
chain: MAKFECTDEVTNFLTELPKCEHHLHLEGTLEPELLFQLVERNGVQLPGTFPKTVNELHVIYNNFADLQDFLNYYYIGCNVLLSEDDFFELAWSYFKRVSTQGLRHAEVFYDPQSHTSRGISLEVVTKGFERACAKAQEEFNISTKLIMCLLRHCPVEECMDTVKSAKSLIESGVIDGLGLDSSERPFPPELFVECYQLAKSYNKELQLTAHAGEEGDPSFVTNTLDLLETTRIDHGVRSIEDAELIKRLAAQKVMLTLCPLSNVKLQVVKDVSELPLQEFLDNDVPFSINSDDPAYFGGYILQNYLEVYSRFGWSKAVWAKIARQSIEGSWCDPKRKQELLSEVSEVVNKYVNLP
notes: full length, N-terminal 6xHis (pET28c NdeI/XhoI), E. coli BL21(DE3); 46 kDa monomer; gene at chromosome E 2,064,516-2,065,583, no introns (1068 bp, about 355 residues)
Consider B2, for which, in the series “purified protein [2]”, the Km worked out at 680 ± 4.6 µM, the kcat was 8.1 ± 1.3 s⁻¹ and the kcat/Km came out at 11000 M⁻¹ s⁻¹.

Usually Km stands for the substrate concentration at which the rate is half of its maximum. One may read the kcat as the maximal rate divided by the concentration of active sites. As usually defined, the kcat/Km is the turnover number divided by the Michaelis constant.
